Data on 4 molecules can be found in patent publication US20260209334A1 (MAX PLANCK GESELLSCHAFT ZUR F RDERUNG DER WISSENSCHAFTEN E V, published 2026).

The target of assay [1] is T1, human IL-17F with C-terminal Avi-tag, biotinylated, immobilized on BLI sensors (human, UniProt Q96PD4 31-163, biotin on the C-terminal Avi-tag (BirA)).
T1 construct: also called biotinylated IL-17F; not shown: C-terminal Avi-tag
T1 sequence: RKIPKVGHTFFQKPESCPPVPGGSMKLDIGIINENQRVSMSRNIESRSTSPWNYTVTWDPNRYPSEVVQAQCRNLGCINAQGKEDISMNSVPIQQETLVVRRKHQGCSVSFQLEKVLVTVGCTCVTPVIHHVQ
As to the kind of experiment: BLI, biotinylated IL-17F immobilized, monovalent VHH as analyte; 2:1 heterogenous model, high affinity component.

Assay [2] addresses recombinant human IL-17A/F (produced in CHO cells, R&D Systems 5837-IL) (human, UniProt Q16552 24-155; Q96PD4 31-163, limits assumed). As to the kind of experiment: cell-based or functional assay.
Assay [3] addresses T2, recombinant human IL-17F (produced in HEK cells, Proteintech HZ-1116) (human, UniProt Q96PD4 31-163).
T2 sequence (looked up): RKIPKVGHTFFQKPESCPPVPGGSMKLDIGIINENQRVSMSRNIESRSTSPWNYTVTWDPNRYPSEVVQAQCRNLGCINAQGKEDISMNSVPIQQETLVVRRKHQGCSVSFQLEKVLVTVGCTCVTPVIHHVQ
Kind of assay: cell-based or functional assay.

In assay [4] the target is T3, recombinant human IL-17A (produced in HEK cells, Proteintech HZ-1113) (human, UniProt Q16552 24-155). Kind of assay: cell-based or functional assay.
In assay [5] the target is T4, human IL-17A with C-terminal Avi-tag, biotinylated, immobilized on BLI sensors (human, UniProt Q16552 24-155, biotin on the C-terminal Avi-tag (BirA)).
T4 construct: also called biotinylated IL-17A; not shown: C-terminal Avi-tag
Kind of assay: BLI, biotinylated IL-17A immobilized on streptavidin sensors, monovalent VHH as analyte (25, 50, 100 nM), 2:1 heterogenous fit, high affinity component. On the technique in general: In BLI a coated tip is dipped into the sample, and binding shifts an interference pattern.

Assay [6] deals with T4, human IL-17A with C-terminal Avi-tag, …. Kind of assay: BLI, biotinylated IL-17A immobilized, monovalent VHH as analyte; 2:1 heterogenous model, high affinity component.
Assay [7] deals with T1, human IL-17F with C-terminal Avi-tag, …. As to the kind of experiment: BLI, biotinylated IL-17F immobilized on streptavidin sensors, monovalent VHH as analyte (20, 100 nM), 2:1 heterogenous fit, low affinity component.
For assay [8], the target named is T2, recombinant human IL-17F (produced in …). Kind of assay: cell-based or functional assay. The source holds these as a separate data set.
Assay [9] concerns the target T4, human IL-17A with C-terminal Avi-tag, …. Kind of assay: BLI, biotinylated IL-17A immobilized on streptavidin sensors, monovalent VHH as analyte (20, 100 nM), 2:1 heterogenous fit, low affinity component.
Assay [10] has as its target T2, recombinant human IL-17F (produced in …). Kind of assay: cell-based or functional assay. This is another data set of the same source.
Assay [11] deals with T1, human IL-17F with C-terminal Avi-tag, …. As to the kind of experiment: BLI, biotinylated IL-17F immobilized, monovalent VHH as analyte.
Assay [12] concerns the target T4, human IL-17A with C-terminal Avi-tag, …. As to the kind of experiment: BLI, biotinylated IL-17A immobilized, monovalent VHH as analyte.
Assay [13] has as its target T2, recombinant human IL-17F (produced in …). As to the kind of experiment: cell-based or functional assay. This is another data set of the same source.
The target of assay [14] is T4, human IL-17A with C-terminal Avi-tag, …. Kind of assay: BLI, biotinylated IL-17A immobilized on streptavidin sensors, monovalent VHH as analyte (25, 50, 100 nM), mass transport fit.
Assay [15] has as its target T3, recombinant human IL-17A (produced in …). As to the kind of experiment: cell-based or functional assay. This is another data set of the same source.

Like-named read-outs stand apart in the source and are kept apart here.

One may read the Kd as the constant that tells how readily two partners part at equilibrium.

Chain of recombinant human IL-17A/F (produced in CHO cells, R&D Systems 5837-IL) (Q16552 24-155 limits assumed, chain 1 of 2, one chain of several): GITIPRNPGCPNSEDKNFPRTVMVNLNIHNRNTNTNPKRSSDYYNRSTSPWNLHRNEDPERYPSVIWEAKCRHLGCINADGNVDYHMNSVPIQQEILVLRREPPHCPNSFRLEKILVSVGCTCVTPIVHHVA

B1: Re42F08 (VHH)
VHH: QVQLVESGGGLVKAGGSLRLSCVVSGHTSEISAMGWYRQAPGKQRELVALITSRSGDTHYSDSVKGRFSISRDNAKNTMYLQMNSLNPDDTAVYYCVHNEPGHLYMAQGTQVTVSS
notes: Class B, first generation
With B1, the dissociation constant (Kd) was 6 nM in [1], 1 nM in assay [5] and 1 nM in assay [6]. Also, the figures for the “Neutralization potency, ranking from 1 = the best to 4 (HEK-Blue IL-17 reporter cells)” value (from here on “Neutralization potency, ranking”) in assay [2], in [3] and in assay [4] were 3 rank, 4 rank and 2 rank, respectively. Besides, the KD2 in assay [7] and in [9] was 60 nM each time. Further, in [8], the “IC50 (read off the curve), SEAP reporter, HEK-Blue IL-17 cells, 0.85 nM IL-17F” value (from here on “IC50 (read off the curve) … 0.85 nM IL-17F”) was roughly 5 nM.

B2: VHH664 (VHH)
VHH: EVQLVESGGGLVQAGGSLRLSCAASGRTYDAMGWLRQAPGKEREFVAAISGSGDDTYYADSVKGRFTISKDNAGITMYLQMNSLKPEDTAVYYCATRRGLYYVWDSNDYENWGQGTQVTVSS
notes: Control VHH of Ablynx, disclosed in WO2012156219
On to B2, for which the “Neutralization potency, ranking” value came to 2 rank in assay [2], 4 rank in assay [3] and 2 rank in [4]. In assay [10], the “IC50 (read off the curve) … 0.85 nM IL-17F” value was roughly 60 ng/mL. The Kd in assay [11] came out at 12 nM; in assay [12], 0.15 nM.

B3: Bm18F11 (VHH)
VHH: QVQLVESGGDLVQAGGSLRLSCAASGLTGSSYAMGWFRQAPGKEREFVAAISWISGDTKYTDSVKGRFTMSRDNAKKQVYLEMNSLKPEDTAVYYCNDMPYGLDTRMDEYVYWGQGTQVTVSS
notes: Class A, first generation
For the molecule B3, the “IC50 (read off the curve) … 0.85 nM IL-17F” value in assay [13] is roughly 5 nM. In assay [14], the Kd amounted to 1 nM.

B4: Bm44C09 (VHH)
VHH: QVQLVESGGGLVQAGGSLRLSCAASGLAVSSYAMGWFRQAPGKEREFVAAISWISGGTKYADSVKDRFTMSRDNAKKQVYLEMNSLKPEDTAVYYCNDMPYGLDTRMDDYKYWGQGIQVTVSS
notes: Class A, second generation
Take B4: the results for the “Neutralization potency, ranking” value in assay [2], in assay [3] and in assay [4] were 1 rank, 1 rank and 4 rank, respectively. For the same molecule, the “IC50 (read off the curve), SEAP reporter, HEK-Blue IL-17 cells, 0.17 nM IL-17A” value in assay [15] was roughly 2 nM. Also, the results for the Kd in assay [11] and in assay [12] were 0.1 nM and 2 nM, respectively.
